Consider two molecules from US20130136743A1 (LABORATOIRE FRANCAIS DU FRACTIONNEMENT ET DES …, published 2013).

The target of test [1] is T1, AMHR-II/Fc fusion protein (human, UniProt Q16671 18-149, limits assumed).
T1 construct: also called AMHR-II recombinant receptor expressed in the form of fusion protein with a region Fc; recombinant target; not shown: Fc region
In words: direct phage ELISA, target coated at 500 ng/well; 3.00E+09 phages per well as printed (third row).

For test [2], the target named is T1, AMHR-II/Fc fusion protein. In words: direct phage ELISA, ratio of specific binding; 3.00E+10 phages per well as printed (second row).
Test [3] addresses T1, AMHR-II/Fc fusion protein. Description: direct phage ELISA, target coated at 500 ng/well; 3.00E+09 phages per well as printed.
Test [4] concerns the target T1, AMHR-II/Fc fusion protein. In words: direct phage ELISA, ratio of specific binding; 3.00E+09 phages per well as printed.
Test [5] concerns the target T1, AMHR-II/Fc fusion protein. Description: direct phage ELISA, ratio of specific binding; 3.00E+09 phages per well as printed (third row).
The target of test [6] is T1, AMHR-II/Fc fusion protein. Description: direct phage ELISA, target coated at 500 ng/well; 3.00E+09 phages per well as printed (second row).
In test [7] the target is T1, AMHR-II/Fc fusion protein. In words: direct phage ELISA, target coated at 500 ng/well; 3.00E+10 phages per well as printed.
For test [8], the target named is T1, AMHR-II/Fc fusion protein. In words: direct phage ELISA, ratio of specific binding; 3.00E+10 phages per well as printed.
Test [9] concerns the target T1, AMHR-II/Fc fusion protein. In words: direct phage ELISA, target coated at 500 ng/well; 3.00E+10 phages per well as printed (second row).
Test [10] addresses T1, AMHR-II/Fc fusion protein. Description: direct phage ELISA, ratio of specific binding; 3.00E+09 phages per well as printed (second row).
Test [11] addresses T1, AMHR-II/Fc fusion protein. In words: SPR, BIAcore X100; AMHR-II/Fc immobilised on CM5 chip, antibody injected; 25 C. Here is the method:
The affinity of the antibodies for their antigen, AMHR-II, is determined by the SPR (Surface Plasmon Resonance) technique on BIACore X100 (BIACore, GE Healthcare). The AMHR-II recombinant receptor, expressed in the form of fusion protein with a region Fc, is immobilized by covalent coupling between its amine functions and the carboxyl groups of dextran activated in succinimide esters, present on the surface of the type CM5 sensor chip. The COOH groups of the sensor chip are activated for 7 minutes with EDC/NHS mixture (0.1 M of N-hydroxysuccinimide and 0.1 M of 3-(N,N-dimethylamino)propyl-N-ethylcarbodiimide) at a flow of 10 μl/min then the AMHR-II/Fc fusion protein, diluted to 5 μg/ml in 10 mM sodium acetate buffer, pH 4.0, is injected at […] on track 2 of the sensor chip so as to reach 300 RU. The ester groups that have not reacted with the amines of the fusion protein are deactivated by injection of a solution of ethanolamine-HCl 1M, pH 8.5 for 7 min at a flow of 10 μl:min. Track 1, serving as negative control, was activated and deactivated like track 2.
All the measurements are carried out at 25° C. The antibodies to be analysed are diluted in HBS-EP running buffer (BIACore, GE Healthcare) at concentrations from 6.25 to 3333 nM and injected on the sensor chip for 2 min at a flow of 30 μl/min. The dissociation step is monitored for 10 min and then the surface is regenerated by injection of 10 mM glycine buffer, pH 1.5 for 30 s at 10 μl/min.
The sensorgrams obtained are analysed using the 1:2 kinetic model of the BIAevaluation 3.1 software.

The target of test [12] is T2, AMHR-II human receptor (human, UniProt Q16671 18-573, limits assumed).
T2 sequence (looked up): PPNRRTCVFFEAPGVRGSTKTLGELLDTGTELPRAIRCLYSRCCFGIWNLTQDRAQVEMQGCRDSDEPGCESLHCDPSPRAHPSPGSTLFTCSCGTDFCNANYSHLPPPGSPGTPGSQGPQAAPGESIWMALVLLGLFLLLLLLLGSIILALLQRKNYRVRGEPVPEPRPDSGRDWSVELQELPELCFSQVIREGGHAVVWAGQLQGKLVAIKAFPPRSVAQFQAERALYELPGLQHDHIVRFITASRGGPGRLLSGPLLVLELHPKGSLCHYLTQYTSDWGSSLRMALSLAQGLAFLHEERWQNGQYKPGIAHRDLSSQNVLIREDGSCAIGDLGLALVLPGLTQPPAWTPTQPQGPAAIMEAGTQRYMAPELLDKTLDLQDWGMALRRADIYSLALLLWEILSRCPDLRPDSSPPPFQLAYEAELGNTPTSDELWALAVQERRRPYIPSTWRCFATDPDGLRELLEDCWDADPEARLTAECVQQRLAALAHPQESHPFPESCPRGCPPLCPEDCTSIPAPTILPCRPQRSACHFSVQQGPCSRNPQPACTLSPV
In words: method not stated; determined on the AMHR-II human receptor; determined on the AMHR-II human receptor (table footnote), apart from the tabulated 2.35 × 10^-7M.

Test [13] deals with T3, Epitope peptide GGGGNLTQDRAQVEMQGSR
T3 peptide: GGGGNLTQDRAQVEMQGSR
In words: method not stated; Example 2, heading names cov434-AMHR-II cells and the epitope peptide.

B1: mVH-VL, murine antibody mLFB112 expressed as scFv on phage (scFv, part only; not given: scFv linker, part only)
scFv, part: QVQLQQSGPELVKPGASVRMSCKASGYTFTSYHIHWVKQRPGQGLEWIGWIYPGDDSTKYNEKFKGKTTLTADKSSSTAYMLLSSLTSEDSAIYFCTRGDRFAYWGQGTLVTVSAQIVLTQSPAIMSASLGEGITLTCSASSSVRYIHWYQQKSGTSPKLLIYSTSNLASGVPSRFSGSGSGTFHSLTISSVEAEDAADYYCLQWSSYPWTFGGGTKLEIK
On to B1, for which the OD 450 nm, +covering in test [1] stood at 0.495 OD; in [3], 1.57 OD; in test [6], 0.946 OD; in test [7], 2.81 OD; in [9] it was 2.19 OD. The OD 450 nm, Diff (specific binding) in [1] was determined as 0.446 OD; in [3], 1.51 OD; in [6], 0.887 OD; in [7], 2.65 OD; in test [9], 2.11 OD. For the same molecule, the Ratio mVH-VL/huVH-VL is 3.6 in test [2]; 4.7 in test [4]; 5.2 in [5]; 2.4 in test [8]; 5.2 in test [10].

B2: chimeric 12G4 monoclonal antibody (antibody, V domains shown)
VH: QVQLQQSGPELVKPGASVRMSCKASGYTFTSYHIHWVKQRPGQGLEWIGWIYPGDDSTKYNEKFKGKTTLTADKSSSTAYMLLSSLTSEDSAIYFCTRGDRFAYWGQGTLVTVSA
VL: QIVLTQSPAIMSASLGEGITLTCSASSSVRYIHWYQQKSGTSPKLLIYSTSNLASGVPSRFSGSGSGTFHSLTISSVEAEDAADYYCLQWSSYPWTFGGGTKLEIKR
notes: Variable regions without leader joined to the human constant regions; also called 12G4-Chimeric; unmutated chimeric 12G4 antibody
For the molecule B2, in [11], the dissociation constant Kd turned out to be 212 nM, the dissociation rate constant (koff) was 0.00074 s⁻¹ and the kon worked out at 3500 M⁻¹ s⁻¹. In addition, the Kd in [12] was approximately 10 nM. In addition, in test [13], the Kd is 235 nM, the dissociation rate constant (koff) is 0.00153 s⁻¹ and the kon is 6490 M⁻¹ s⁻¹.
